In series [1] the target is T1, LEF-6 (non-phosphorylated, E. coli) (Autographa californica multiple …, UniProt S5G646 1-173).
T1 sequence: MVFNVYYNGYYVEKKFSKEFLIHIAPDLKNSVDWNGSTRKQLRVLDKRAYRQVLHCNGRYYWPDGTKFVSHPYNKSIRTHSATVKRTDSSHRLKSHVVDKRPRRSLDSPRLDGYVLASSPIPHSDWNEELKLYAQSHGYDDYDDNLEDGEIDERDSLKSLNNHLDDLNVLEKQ
Nature of the series: fluorescence anisotropy; Anisotropy: 20 mM Tris-HCl pH 7.5, 20 mM NaCl, 5 nM FAM-ssRNA, 28 C; EMSA: 10 mM Tris pH 7.5, 20 mM KCl, 1 mM MgCl2, 1 mM DTT, 20 uM RNA, 22 C, 1% agarose/TAE. To be noted: protein: recombinant, tags: His.

The target in series [2] is T2, LEF6 1-90 (host not stated) (Autographa californica multiple …, UniProt S5G646 1-90).
T2 sequence: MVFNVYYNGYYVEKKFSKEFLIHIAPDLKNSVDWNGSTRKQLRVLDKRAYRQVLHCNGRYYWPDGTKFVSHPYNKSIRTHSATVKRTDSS
Described as above. To be noted: protein: recombinant, tags: His.

In series [3] the target is T3, LEF6 82-173 (Autographa californica multiple …, UniProt S5G646 82-173).
T3 sequence: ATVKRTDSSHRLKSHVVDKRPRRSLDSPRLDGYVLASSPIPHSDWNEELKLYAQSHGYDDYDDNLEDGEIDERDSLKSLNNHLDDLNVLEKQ
As to the kind of experiment: EMSA; Anisotropy: 20 mM Tris-HCl pH 7.5, 20 mM NaCl, 5 nM FAM-ssRNA, 28 C; EMSA: 10 mM Tris pH 7.5, 20 mM KCl, 1 mM MgCl2, 1 mM DTT, 20 uM RNA, 22 C, 1% agarose/TAE. To be noted: protein: recombinant; tags: His; label: FAM (anisotropy); EMSA detected by ethidium bromide. Background: Mobility shift assays separate free from complexed probe on a gel.

Series [4] concerns the target T4, LEF6 1-90 (High Five) (Autographa californica multiple …, UniProt S5G646 1-90).
T4 sequence: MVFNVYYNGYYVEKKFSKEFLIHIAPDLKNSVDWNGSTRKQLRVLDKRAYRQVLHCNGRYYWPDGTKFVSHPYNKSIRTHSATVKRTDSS
The series is described as above. To be noted: protein: recombinant; tags: His; label: FAM (anisotropy); EMSA detected by ethidium bromide.

Series [5] concerns the target T5, LEF6 1-90 (E. coli) (Autographa californica multiple …, UniProt S5G646 1-90).
T5 sequence: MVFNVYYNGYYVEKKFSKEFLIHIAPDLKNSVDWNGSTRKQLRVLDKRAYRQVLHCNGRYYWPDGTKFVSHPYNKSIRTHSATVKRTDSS
Described as above. To be noted: protein: recombinant; tags: His; label: FAM (anisotropy); EMSA detected by ethidium bromide.

The mark [6] stands for this setting: label: FAM (anisotropy), EMSA detected by ethidium bromide.

B1: ie1 ssRNA (ssRNA)
RNA: UUAUAACCAUCCCACCCCGGAUGGAGC
As for B1, the binding result in series [1] (label: FAM) and in series [2] (label: FAM) was “binds” in each case.

B2: unrelated ssRNA (ssRNA)
RNA: UUUUUUUUUUCUCUGCUCGACG
Consider B2, for which the binding result in series [1] (label: FAM) and in series [2] (label: FAM) was “binds” throughout.

B3: p10 ssRNA (ssRNA)
RNA: CGGUUUGCCCGCUCAAUUGACCGAUCU
Consider B3, for which the binding result in series [1] (setting [6]) and in series [2] (setting [6]) was “binds” in each case.

B4: p6.9 ssRNA (ssRNA)
RNA: GACAGGUCGCCGAAGUUACAGAACACG
On to B4, for which the binding result in series [3] was “no binding”; in series [4] it was “binds”; in series [5], “binds”; in series [1] (setting [6]), “binds”; in series [2] (setting [6]) it was “binds”.

Values taken from article PMC12455930, “LEF-6 phosphorylation regulates the binding and trafficking of baculovirus late gene transcripts”.
